Here are results for four molecules from publication PMC10136559, “An Aptamer That Rapidly Internalizes into Cancer Cells Utilizes the Transferrin Receptor Pathway”.

The target in data set [1] is mouse transferrin receptor (mTfR) (Mus musculus, UniProt Q62351 89-763). In words: bead-based flow cytometry; 200 nM aptamer; SB1T: 40 mM HEPES, 125 mM NaCl, 5 mM KCl, 1 mM MgCl2, 1 mM CaCl2, 0.05% Tween20, 1 mg/mL salmon sperm DNA; 37 °C, 30 min; pH not stated. The conditions noted are these: protein: recombinant, chain copies: 2, label: 5' DyLight 650 via thiol C6. (In general: Flow cytometry measures light scatter and fluorescence of single cells or particles in a stream.)

In data set [2] the target is T1, human transferrin receptor 1 (hTfR) (Homo sapiens, UniProt P02786 89-760). In words: bead-based flow cytometry; apparent Kd; 0-100 nM aptamer range; SB1T: 40 mM HEPES, 125 mM NaCl, 5 mM KCl, 1 mM MgCl2, 1 mM CaCl2, 0.05% Tween20, 1 mg/mL salmon sperm DNA; 37 °C, 30 min; pH not stated. The conditions noted are these: protein: recombinant; tags: His; chain copies: 2; label: 5' DyLight 650 via thiol C6.

For data set [3], the target named is T1, human transferrin receptor 1 (hTfR). In words: bead-based flow cytometry; apparent Kd; SB1T: 40 mM HEPES, 125 mM NaCl, 5 mM KCl, 1 mM MgCl2, 1 mM CaCl2, 0.05% Tween20, 1 mg/mL salmon sperm DNA; 37 °C, 30 min; pH not stated. The conditions noted are these: protein: recombinant, tags: His, chain copies: 2, label: 5' DyLight 650 via thiol C6.
Setting [4] is: hairpin with bulge and loop (predicted).

T1 sequence (P02786 89-760): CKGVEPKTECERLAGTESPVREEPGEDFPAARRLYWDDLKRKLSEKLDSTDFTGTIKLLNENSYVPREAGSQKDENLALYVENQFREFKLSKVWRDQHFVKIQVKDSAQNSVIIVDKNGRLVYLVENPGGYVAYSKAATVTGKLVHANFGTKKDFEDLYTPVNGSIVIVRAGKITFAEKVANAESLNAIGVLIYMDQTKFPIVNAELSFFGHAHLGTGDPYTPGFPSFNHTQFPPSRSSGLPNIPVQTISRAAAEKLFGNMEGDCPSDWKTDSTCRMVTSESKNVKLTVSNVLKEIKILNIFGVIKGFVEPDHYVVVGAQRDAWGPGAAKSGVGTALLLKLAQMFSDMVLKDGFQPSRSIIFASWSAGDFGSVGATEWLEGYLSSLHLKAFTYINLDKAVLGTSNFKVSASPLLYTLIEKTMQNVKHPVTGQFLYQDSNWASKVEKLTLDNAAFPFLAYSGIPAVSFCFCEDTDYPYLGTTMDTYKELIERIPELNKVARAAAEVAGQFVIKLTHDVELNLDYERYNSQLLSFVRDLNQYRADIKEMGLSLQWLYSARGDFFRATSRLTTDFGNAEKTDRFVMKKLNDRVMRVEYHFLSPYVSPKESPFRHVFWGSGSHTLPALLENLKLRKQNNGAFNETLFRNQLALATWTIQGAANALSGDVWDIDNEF
mouse transferrin receptor (mTfR), sequence (Q62351 89-763): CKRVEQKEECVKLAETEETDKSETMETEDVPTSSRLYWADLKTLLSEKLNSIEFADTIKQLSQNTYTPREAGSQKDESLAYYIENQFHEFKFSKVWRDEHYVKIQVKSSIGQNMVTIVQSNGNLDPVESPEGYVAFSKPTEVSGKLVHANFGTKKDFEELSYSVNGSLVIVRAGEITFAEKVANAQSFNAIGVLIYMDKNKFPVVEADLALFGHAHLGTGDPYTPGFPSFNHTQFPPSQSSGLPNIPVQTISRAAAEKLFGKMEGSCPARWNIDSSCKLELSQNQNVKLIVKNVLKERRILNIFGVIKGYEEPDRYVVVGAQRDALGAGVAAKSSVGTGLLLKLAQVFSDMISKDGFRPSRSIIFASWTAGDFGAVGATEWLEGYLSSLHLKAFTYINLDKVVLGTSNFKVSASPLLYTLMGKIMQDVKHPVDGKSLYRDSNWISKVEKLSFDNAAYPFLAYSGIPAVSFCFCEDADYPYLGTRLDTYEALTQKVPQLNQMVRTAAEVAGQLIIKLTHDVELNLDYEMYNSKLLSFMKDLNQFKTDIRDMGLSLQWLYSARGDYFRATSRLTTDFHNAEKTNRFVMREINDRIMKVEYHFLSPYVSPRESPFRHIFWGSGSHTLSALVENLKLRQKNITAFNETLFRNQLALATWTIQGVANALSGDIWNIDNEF

As for GGCGUAGUGAUUAUGAAUCGUGUGCUAAUACACGCC (XNA, 2'-fluoro pyrimidines; 3' inverted dT) [C36 (DL650-C36)], in data set [1], the binding result was “no binding”.

For the molecule GGGUUCUACGAUAAACGGUUAAUGACCAGCUUAUGGCUGGCAGUUCCC (XNA, 2'-fluoro pyrimidines; 3' inverted dT) [Waz (DL650-Waz)], the Kd in data set [2] came to 22.1 nM. For the same molecule, in data set [1], the binding result was “no binding”.

GGCUUUCGGGCUUUCGGCAACAUCAGCCCCUCAGCC (XNA, 2'-fluoro pyrimidines; 3' inverted dT) [E3 (DL650-E3)]: in data set [3] (setting [4]), the Kd is 4.23 nM. Moreover, in data set [1] (setting [4]), the binding result is on record as “no binding”.

As for GGGGGAUCAAUCCAAGGGACCCGGAAACGCUCCCUUACACCCC (XNA, 2'-fluoro pyrimidines; 3' inverted dT) [C2.min (DL650-C2.min)], the Kd in data set [3] came out at 7.44 nM.
